Key:
[1] = biological target: SDAec complex with the Q64S, P299H, L300Q NFS1 triple variant (human | Escherichia coli) (UniProt Q9Y697)
[2] = biological target: T1, NFS1(Δ1–55) with N-terminal His6 tag (human, UniProt Q9Y697 56-457, covalently attached PLP); assay: native MS; protomer exchange: 1:1 mix of 15N- and 14N-labelled SDAec (or His-tagged and untagged IscS), room temperature, 200 mM ammonium acetate pH 8.5, EMR Orbitrap; ratio of exchanged dimer to the sum of unexchanged dimers; α2β2γ2 (or IscS dimer) to protomers and back; conditions: both partners purified
T1 construct: NFS1, human cysteine desulfurase, Δ1–55 (residues 56 to the C-terminus); The NFS1 chain of m1; also called α subunit; source: recombinant, co-purified within the SDAec complex; not shown: His6, N-terminal, kept

**Q.** “FXN (Δ1–81) (from UniProt Q16595 82-210) (natural protein)” was tested. Which FXN-stimulated cysteine desulfurase activity (μM S^2–/min·μM NFS1) [1] did it give?
**A.** 8

B1: Escherichia coli acyl-carrier protein (natural protein)
chain: MSTIEERVKKIIGEQLGVKQEEVTNNASFVEDLGADSLDTVELVMALEEEFDTEIPDEEAEKITTVQAAIDYINGHQA
modifications: acyl-4′PPT (assumed mass 523 Da)
notes: Escherichia coli acyl-carrier protein (ACPec) associated with NFS1-ISD11; The ACP chain of m1; also called ACPec; ACP; source: co-purified within the SDAec complex
**Q.** Does B1 bind [2]?
**A.** binds

Reference: article PMC11840927, “Frataxin Traps Low Abundance Quaternary Structure to Stimulate Human Fe–S Cluster Biosynthesis” (Biochemistry, 2025)
